Reference: patent US20250312453A1

Molecular target: MSLN (UniProt Q13421)
Assay: BLI

Chain of MSLN (Q13421 other isoform, or with tags, fused parts or gaps limits assumed): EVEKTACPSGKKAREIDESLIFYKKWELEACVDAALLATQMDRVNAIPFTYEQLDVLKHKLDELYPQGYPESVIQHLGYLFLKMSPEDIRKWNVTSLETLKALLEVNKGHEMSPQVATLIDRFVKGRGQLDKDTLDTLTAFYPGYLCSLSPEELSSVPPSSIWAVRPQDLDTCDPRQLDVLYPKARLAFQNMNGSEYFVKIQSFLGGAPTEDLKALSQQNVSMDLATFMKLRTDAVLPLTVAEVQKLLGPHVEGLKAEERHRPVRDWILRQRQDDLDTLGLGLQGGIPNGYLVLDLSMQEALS

Kd: 11.4 nM
B1: nanobody NM5 (VHH)
VHH: DVQLQESGGGLVQAGGSLRLSCVGAGVSFSPYGIGWWRQAQGNQREWVASIYRSGSTNYEDFAKDRFTISRDNTKNTAYLQMNSLKPEDTAVYYCQILGTSYRGQGTQVTVSS
